Measurements reported in publication PMC4019986, “Structural and biochemical characterization of the KLHL3–WNK kinase interaction important in blood pressure regulation” (Biochemical Journal, 2014).
Ends that are not written are not given here. Peptide text beside a SMILES is read from it. * marks the point of attachment. X1 = N[C@H]1CS[As]2SC[C@H](NC1=O)C(=O)N1CCC[C@H]1C(=O)NCC(=O)N[C@H]1CS[As](SC[C@@H](C(=O)*)NC1=O)c1c(O)ccc3c1Oc1c(ccc(O)c12)C31OC(=O)c2ccccc21

Assays:
GST–KLHL3^290–587 R528H [1] = molecular target: GST–KLHL3^290–587 R528H (Homo sapiens, UniProt Q9UH77, R528H); format: binding
GST–KLHL3^290–587 N529K = molecular target: T1, GST–KLHL3^290–587 N529K (human, UniProt Q9UH77-1 290-587, N529K); assay: fluorescence polarisation; Kelch protein titrated against 10 nM Lumio-Green-labelled peptide; 25°C; 50 mM Tris/HCl pH 7.5, 150 mM NaCl, 2 mM DTT; one-site specific binding with Hill slope; duplicates, at least 12 points per curve; conditions: both partners purified
T1 construct: KLHL3, human, NM_017415.2, Kelch domain, residues 290-587, with the Gordon's syndrome mutation N529K; Mutation found in patients with Gordon's syndrome; also called KLHL3 N529K; source: E. coli BL21, purified (glutathione–Sepharose); not shown: GST, N-terminal, kept
T1 sequence (looked up): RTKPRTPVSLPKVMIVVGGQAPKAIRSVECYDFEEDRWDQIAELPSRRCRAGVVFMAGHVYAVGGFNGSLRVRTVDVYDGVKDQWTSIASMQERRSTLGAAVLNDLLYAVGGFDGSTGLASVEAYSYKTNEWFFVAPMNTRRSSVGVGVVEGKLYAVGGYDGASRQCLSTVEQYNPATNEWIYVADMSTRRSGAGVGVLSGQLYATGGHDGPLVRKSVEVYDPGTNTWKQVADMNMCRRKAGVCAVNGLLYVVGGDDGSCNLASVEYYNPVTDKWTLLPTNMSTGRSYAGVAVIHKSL

[2] = molecular target: T2, KLHL3 full-length protein (residues 1–587) (human, UniProt Q9UH77-1 1-587); assay: as above; conditions: both partners purified
T2 construct: Kelch-like protein 3 (KLHL3), human, NM_017415.2, residues 1-587; also called Kelch-like protein 3; source: Sf21 cells, expressed and purified as a DAC-(TEV protease)KLHL3 fusion protein
T2 sequence (looked up): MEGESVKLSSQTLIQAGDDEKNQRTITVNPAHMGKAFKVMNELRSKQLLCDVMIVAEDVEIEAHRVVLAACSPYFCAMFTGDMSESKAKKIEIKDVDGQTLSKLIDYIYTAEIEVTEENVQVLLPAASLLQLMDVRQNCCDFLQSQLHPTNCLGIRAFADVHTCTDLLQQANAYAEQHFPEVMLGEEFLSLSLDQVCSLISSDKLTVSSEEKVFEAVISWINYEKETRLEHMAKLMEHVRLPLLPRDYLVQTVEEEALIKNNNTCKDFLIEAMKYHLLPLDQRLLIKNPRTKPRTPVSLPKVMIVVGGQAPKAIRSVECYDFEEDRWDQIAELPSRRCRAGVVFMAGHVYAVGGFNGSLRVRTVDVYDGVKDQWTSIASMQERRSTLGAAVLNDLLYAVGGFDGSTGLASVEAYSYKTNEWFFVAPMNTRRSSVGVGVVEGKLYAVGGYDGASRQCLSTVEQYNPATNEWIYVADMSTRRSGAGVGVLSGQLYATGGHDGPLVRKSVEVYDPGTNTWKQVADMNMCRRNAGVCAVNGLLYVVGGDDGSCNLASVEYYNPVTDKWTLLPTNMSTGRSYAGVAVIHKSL

GST–KLHL3^290–587 R528H [3] = molecular target: T3, GST–KLHL3^290–587 R528H (human, UniProt Q9UH77-1 290-587, R528H); assay: as above; conditions: both partners purified
T3 construct: KLHL3, human, NM_017415.2, Kelch domain, residues 290-587, with the Gordon's syndrome mutation R528H; Mutation found in patients with Gordon's syndrome; also called KLHL3 R528H; source: E. coli BL21, purified (glutathione–Sepharose); not shown: GST, N-terminal, kept
T3 sequence (looked up): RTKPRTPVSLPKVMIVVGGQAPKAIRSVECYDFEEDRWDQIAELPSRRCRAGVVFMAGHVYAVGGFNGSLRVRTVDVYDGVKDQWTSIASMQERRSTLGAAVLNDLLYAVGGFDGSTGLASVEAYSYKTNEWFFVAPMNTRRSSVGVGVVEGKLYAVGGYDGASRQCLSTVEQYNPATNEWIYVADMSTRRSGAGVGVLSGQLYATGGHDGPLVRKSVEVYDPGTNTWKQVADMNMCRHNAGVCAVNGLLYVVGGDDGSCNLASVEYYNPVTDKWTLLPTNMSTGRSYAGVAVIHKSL

In the case of `CC(C)[C@H](NC(=O)[C@H](CO)NC(=O)[C@@H]1CCCN1C(=O)[C@@H]1CCCN1C(=O)CNC(=O)CNC(=O)CNC(=O)CNC(=O)CNC(=O)[C@@H]1CS[As]2SC[C@H](NC(=O)CNC(=O)[C@@H]3CCCN3C(=O)[C@@H]3CS[As](SC[C@H](N)C(=O)N3)c3c(O)ccc4c3Oc3c(ccc(O)c32)C42OC(=O)c3ccccc32)C(=O)N1)C(=O)N[C@@H](Cc1ccccc1)C(=O)N1CCC[C@H]1C(=O)N1CCC[C@H]1C(=O)N[C@@H](CCC(=O)O)C(=O)N1CCC[C@H]1C(=O)N[C@@H](CCC(=O)O)C(=O)N[C@@H](CCC(=O)O)C(=O)N1CCC[C@H]1C(=O)N[C@@H](CCC(=O)O)C(=O)N[C@@H](C)C(=O)N[C@@H](CC(=O)O)C(=O)N[C@@H](CCC(N)=O)C(=O)N[C@@H](Cc1cnc[nH]1)C(=O)N[C@@H](CCC(N)=O)C(=O)O` (stereo partly shown) [WNK4 WT 549–567] (X1-GGGGGPPSVFPPEPEEPEADQHQ-OH), the “reduction of binding relative to wild-type KLHL3” value (GST–KLHL3^290–587 R528H [1]) is reported as “approximately 10 fold”.

B1: 19-residue WNK4 degron peptide (WNK4 WT 549–567) (peptide)
peptide: GPPSVFPPEPEEPEADQHQ
modifications: not fully specified (N-terminus); also: Lumio Green fluorophore on N-terminal linker CCPGCCGGGG
notes: WNK4 acidic degron, residues 549-567; also called WNK4 19-residue peptide; source: synthetic peptide (GL Biochem)
In the case of B1, the Kd (GST–KLHL3^290–587 N529K) is reported as 6600 nM, the Kd [2] is reported as 620 nM and the Kd (GST–KLHL3^290–587 R528H [3]) is reported as 1930 nM.
